Laboratory results taken from patent US20130156779A1 (GlaxoSmithKline, published 2013).
Where two headings read alike, the source gives them in different places.

What was measured:
[1] = target: T1, Human HER3 receptor (human, UniProt P21860 20-1342); assay: cell-based or functional assay
[2] = target: T1, Human HER3 receptor; assay: cell-based or functional assay; remark: listed apart in the source
[3] = target: T1, Human HER3 receptor; assay: cell-based or functional assay; remark: listed apart in the source
[4] = target: T1, Human HER3 receptor; assay: cell-based or functional assay; remark: listed apart in the source
[5] = target: T2, Full-length human HER3 extracellular domain (ECD) (human, UniProt P21860 20-643); assay: affinity summary table, method not given
T2 construct: also called human HER3 ECD; HER-3 ECD full length

[6] = target: T3, Human HER3 ECD domain II (human, UniProt P21860 184-329); assay: affinity summary table, method not given
T3 construct: also called D2; Domain 2

[7] = target: T4, Human HER3 ECD domain I (human, UniProt P21860 20-183); assay: DELFIA, plate coated with HER3 Domain I 1ug/ml
T4 construct: also called D1; sub-domain 1
Experimental: (§1) Dissociation Enhanced Lanthanide Fluorescence Immunoassay (DELFIA) for detection of the anti-HER3 antibodies to HER3 extracellular domain (ECD) was used. The DELFIA procedures were as follows: white Maxisorp 96-well plates (Nunc #437796) were coated with 100 ul/well of 1 ug/ml HER-3 ECD full length or HER3Domain I, II, III and IV in 0.1M carbonate buffer pH 9.5 overnight at 4° C. These plates were blocked with casein in TBS (Thermo Scientific #37532 lot#JD121074). The neat hybridoma supernatant, or the purified anti-HER3 antibodies diluted in Perkin Elmer #4002-0010 Assay Buffer from 10 ug/ml (or 100 ug/ml) to 0.01 ug/ml, or the PK serum samples with a minimum of 3 dilutions (100 ul/well) were added to the plate. These samples were incubated for 2 hours at room temperature while on a plate shaker or overnight at 4° C. […] The plate was washed 4 times with tris-buffer plus 0.05% tween-20 (Perkin Elmer #4010-0010) on a BIOTEK™ plate washer following each antibody incubation step. 100 ul/well of DELFIA enhancement solution (Perkin Elmer 1244-105) was added for 5 minutes at room temperature. […] Antibody binding was recorded as europium counts per well.

[8] = target: T5, Human HER3 ECD domain IV (human, UniProt P21860 496-643); assay: DELFIA, plate coated with HER3 Domain IV 1ug/ml
T5 construct: also called D4; sub-domain 4
Experimental: as §1

[9] = target: T6, Human HER3 ECD domain III (human, UniProt P21860 330-495); assay: DELFIA, plate coated with HER3 Domain III 1ug/ml
T6 construct: also called D3; Domain 3
Experimental: as §1

[10] = target: T2, Full-length human HER3 extracellular …; assay: BIACORE 2000 SPR, mAb captured, HER3 protein as analyte, 25 C
Experimental: (§2) Mouse monoclonal antibodies were analysed using rabbit anti-mouse (RAM) IgG (GE Healthcare BR-1008-38) covalently coupled to a BIACORE™ CM5 chip (GE HEalthcare BR-1000-14) by primary amine chemistry (NHS/EDC activated) (GE Healthcare amine coupling kit BR-1000-50). Chimeric and humanized competitor monoclonal antibodies were analyzed using anti-human, Fc specific monoclonal (GE Healthcare BR-1008-39) similarly coupled. Each chip was also prepared with a reference surface to which no capture reagent antibody is coupled. Sensorgrams for cycles run with differing analyte concentrations are acquired for kinetic analysis. A cycle consists of capturing the monoclonal on the surface, a short stabilization period with flowing run buffer followed by binding of a defined concentration of analyte (ECD or sub-domain protein). Injection of analyte for surface binding (3-4 minutes) yields the association part of curve. This is followed by buffer only flow (3-4 minutes) which allows recording of dissociation data.
(§3) The general method for affinity analysis is as follows. First, chips were prepared and tested for reasonance units (RU) captured for several monoclonal antibody concentrations. Kinetic cycles were then run in which monoclonal antibody was captured to a level of approximately 100RU, analyte protein was allowed to bind then dissociate and the surface was regenerated to remove all but covalently coupled protein. RAM chips were regenerated with capture kit supplied 100 mM glycine pH1.7 and anti-human chips with capture kit supplied 3M MgCl₂. […] Several buffer cycles were run prior to analyte protein to ensure cycle consistency and in some experiments a buffer cycle is used a “double reference[.]” Analytes used were human full length HER3 extra cellular domain (ECD), separate sub-domains of the extracellular portion of human HER3 (D1, D2, D3, D4), or combination HER3 domain proteins (D1-2 and D2-3).

[11] = target: T3, Human HER3 ECD domain II; assay: as above
Experimental: as §2, §3

[12] = target: T7, Human HER3 ECD domain 1-2 protein (human, UniProt P21860 20-329); assay: as above
T7 construct: also called D1-2; sub-domains 1-2
Experimental: as §2, §3

[13] = target: T8, Human HER3 ECD domain 2-3 protein (human, UniProt P21860 184-495); assay: as above
T8 construct: also called D2-3; sub-domains 2-3
Experimental: as §2, §3

[14] = target: T9, Murine HER3 on B16 and B16F10 melanoma cells (murine, UniProt Q61526 20-1339); assay: flow cytometry on B16F10 murine melanoma cells, antibody labelled with a Zenon APC kit [c]
T9 construct: whole, on cells
Description: B16F10 ZENON™ labeling kits: [0530] Mouse IgG1 PE—Invitrogen Z25021 [0531] Mouse IgG1 APC—Invitrogen Z25051 [0532] Mouse IgG2b APC—Invitrogen Z25151 Method: Commercially available anti-human EGFR and HER2 antibodies were provided. A commercially available HER3 antibody represented by the provider to recognizes human HER3 was provided. The murine 15D5 antibody, murine 1D9 antibody (M5.1D9.1F5), murine 24H5 antibody (M5.24H5.C2) antibodies were also provided. These antibodies were labeled with either PE or APC using the ZENON™ labeling kits (Invitrogen). 5×10⁶ B 16, or B16F10, murine melanoma cells were added to flow cytometry tubes containing the labeled anti-HER3 antibodies. Cells and antibodies were incubated for 30 minutes on ice in the dark, washed and resuspended in FACS buffer. Cells were then analyzed on a FACSCANTO™ flow cytometer. Data analysis was performed using […]™ software, developed by BD Biosciences. Cell populations were gated using forward vs. side scatter and histograms of fluorescent intensities were generated.

[15] = target: T3, Human HER3 ECD domain II; assay: DELFIA (europium time-resolved fluorescence), plate coated with HER3 Domain II 1ug/ml, antibody titrated 0.001-10 ug/ml

T1 sequence (P21860 20-1342 limits assumed): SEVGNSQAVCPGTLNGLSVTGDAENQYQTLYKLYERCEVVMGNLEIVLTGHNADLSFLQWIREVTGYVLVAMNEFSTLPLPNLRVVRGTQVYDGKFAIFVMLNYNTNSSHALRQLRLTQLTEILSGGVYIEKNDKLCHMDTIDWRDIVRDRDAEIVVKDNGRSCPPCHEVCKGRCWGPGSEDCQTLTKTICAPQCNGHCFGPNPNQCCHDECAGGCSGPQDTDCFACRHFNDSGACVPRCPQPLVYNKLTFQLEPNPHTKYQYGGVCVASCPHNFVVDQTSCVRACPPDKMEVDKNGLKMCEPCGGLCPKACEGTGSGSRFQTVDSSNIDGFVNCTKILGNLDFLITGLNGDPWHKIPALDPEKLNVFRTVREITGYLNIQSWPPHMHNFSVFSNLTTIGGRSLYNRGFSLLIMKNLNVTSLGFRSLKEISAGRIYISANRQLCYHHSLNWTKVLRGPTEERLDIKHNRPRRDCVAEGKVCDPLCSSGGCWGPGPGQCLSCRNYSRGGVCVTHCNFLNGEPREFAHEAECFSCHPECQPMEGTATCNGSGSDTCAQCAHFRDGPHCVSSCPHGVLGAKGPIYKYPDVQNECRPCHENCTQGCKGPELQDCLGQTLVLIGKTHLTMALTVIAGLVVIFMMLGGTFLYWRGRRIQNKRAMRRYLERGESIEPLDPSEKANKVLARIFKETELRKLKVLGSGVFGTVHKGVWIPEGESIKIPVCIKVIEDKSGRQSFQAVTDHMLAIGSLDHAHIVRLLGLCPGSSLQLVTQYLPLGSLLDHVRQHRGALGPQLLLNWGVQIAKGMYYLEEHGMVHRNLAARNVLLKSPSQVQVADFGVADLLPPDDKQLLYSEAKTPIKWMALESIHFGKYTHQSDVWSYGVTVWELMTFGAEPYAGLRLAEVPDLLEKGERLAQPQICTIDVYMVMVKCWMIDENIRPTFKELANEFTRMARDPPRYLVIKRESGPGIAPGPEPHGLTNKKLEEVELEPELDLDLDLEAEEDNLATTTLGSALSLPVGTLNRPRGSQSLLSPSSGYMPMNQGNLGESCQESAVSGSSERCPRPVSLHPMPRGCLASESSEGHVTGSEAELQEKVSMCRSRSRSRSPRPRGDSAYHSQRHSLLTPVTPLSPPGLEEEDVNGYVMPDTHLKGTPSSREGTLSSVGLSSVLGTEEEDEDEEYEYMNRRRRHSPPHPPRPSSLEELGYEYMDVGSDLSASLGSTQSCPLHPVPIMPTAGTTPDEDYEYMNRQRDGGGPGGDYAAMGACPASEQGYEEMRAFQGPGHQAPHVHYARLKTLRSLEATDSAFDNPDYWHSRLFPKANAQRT
T2 sequence (P21860 20-643): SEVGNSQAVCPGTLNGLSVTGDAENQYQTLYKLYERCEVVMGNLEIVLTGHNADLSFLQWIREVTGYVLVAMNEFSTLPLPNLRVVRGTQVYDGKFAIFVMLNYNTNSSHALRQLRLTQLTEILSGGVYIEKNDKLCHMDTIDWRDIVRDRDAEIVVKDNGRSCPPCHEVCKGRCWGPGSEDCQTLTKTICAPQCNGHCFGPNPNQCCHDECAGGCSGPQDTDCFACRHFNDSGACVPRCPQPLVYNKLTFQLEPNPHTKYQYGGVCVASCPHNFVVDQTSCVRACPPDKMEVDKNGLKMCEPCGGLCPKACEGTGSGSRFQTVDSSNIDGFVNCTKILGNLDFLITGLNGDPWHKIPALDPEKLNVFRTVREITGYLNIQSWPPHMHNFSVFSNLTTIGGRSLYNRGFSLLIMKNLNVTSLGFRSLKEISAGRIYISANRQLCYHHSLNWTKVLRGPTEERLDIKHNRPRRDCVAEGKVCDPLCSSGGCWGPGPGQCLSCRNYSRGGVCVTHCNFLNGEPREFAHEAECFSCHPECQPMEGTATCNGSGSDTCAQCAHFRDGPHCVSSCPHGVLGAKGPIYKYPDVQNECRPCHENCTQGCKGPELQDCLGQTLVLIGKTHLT
T3 sequence (P21860 184-329): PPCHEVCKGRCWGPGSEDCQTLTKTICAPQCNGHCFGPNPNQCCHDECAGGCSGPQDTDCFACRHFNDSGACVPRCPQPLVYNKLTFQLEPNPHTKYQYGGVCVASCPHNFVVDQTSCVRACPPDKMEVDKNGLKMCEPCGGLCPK
T8 sequence (P21860 184-495): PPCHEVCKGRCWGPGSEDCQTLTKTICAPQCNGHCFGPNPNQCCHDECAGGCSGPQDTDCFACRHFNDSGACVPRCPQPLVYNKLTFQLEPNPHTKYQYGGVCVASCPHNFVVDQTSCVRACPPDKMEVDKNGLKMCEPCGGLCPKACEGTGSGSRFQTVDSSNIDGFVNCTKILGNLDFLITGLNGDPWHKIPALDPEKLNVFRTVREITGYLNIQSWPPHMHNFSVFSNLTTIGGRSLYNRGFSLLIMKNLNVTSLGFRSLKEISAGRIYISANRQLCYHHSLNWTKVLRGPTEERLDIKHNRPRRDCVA
T7 sequence (P21860 20-329): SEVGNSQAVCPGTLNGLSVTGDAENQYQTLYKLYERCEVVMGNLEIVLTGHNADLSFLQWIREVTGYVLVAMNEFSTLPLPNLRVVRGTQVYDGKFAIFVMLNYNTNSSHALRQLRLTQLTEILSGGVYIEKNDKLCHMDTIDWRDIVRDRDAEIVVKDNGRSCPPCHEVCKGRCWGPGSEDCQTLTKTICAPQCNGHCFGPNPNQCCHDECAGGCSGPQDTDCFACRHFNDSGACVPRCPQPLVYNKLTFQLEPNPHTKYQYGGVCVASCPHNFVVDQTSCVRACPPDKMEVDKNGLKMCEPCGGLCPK
T9 sequence (Q61526 20-1339, one chain of several): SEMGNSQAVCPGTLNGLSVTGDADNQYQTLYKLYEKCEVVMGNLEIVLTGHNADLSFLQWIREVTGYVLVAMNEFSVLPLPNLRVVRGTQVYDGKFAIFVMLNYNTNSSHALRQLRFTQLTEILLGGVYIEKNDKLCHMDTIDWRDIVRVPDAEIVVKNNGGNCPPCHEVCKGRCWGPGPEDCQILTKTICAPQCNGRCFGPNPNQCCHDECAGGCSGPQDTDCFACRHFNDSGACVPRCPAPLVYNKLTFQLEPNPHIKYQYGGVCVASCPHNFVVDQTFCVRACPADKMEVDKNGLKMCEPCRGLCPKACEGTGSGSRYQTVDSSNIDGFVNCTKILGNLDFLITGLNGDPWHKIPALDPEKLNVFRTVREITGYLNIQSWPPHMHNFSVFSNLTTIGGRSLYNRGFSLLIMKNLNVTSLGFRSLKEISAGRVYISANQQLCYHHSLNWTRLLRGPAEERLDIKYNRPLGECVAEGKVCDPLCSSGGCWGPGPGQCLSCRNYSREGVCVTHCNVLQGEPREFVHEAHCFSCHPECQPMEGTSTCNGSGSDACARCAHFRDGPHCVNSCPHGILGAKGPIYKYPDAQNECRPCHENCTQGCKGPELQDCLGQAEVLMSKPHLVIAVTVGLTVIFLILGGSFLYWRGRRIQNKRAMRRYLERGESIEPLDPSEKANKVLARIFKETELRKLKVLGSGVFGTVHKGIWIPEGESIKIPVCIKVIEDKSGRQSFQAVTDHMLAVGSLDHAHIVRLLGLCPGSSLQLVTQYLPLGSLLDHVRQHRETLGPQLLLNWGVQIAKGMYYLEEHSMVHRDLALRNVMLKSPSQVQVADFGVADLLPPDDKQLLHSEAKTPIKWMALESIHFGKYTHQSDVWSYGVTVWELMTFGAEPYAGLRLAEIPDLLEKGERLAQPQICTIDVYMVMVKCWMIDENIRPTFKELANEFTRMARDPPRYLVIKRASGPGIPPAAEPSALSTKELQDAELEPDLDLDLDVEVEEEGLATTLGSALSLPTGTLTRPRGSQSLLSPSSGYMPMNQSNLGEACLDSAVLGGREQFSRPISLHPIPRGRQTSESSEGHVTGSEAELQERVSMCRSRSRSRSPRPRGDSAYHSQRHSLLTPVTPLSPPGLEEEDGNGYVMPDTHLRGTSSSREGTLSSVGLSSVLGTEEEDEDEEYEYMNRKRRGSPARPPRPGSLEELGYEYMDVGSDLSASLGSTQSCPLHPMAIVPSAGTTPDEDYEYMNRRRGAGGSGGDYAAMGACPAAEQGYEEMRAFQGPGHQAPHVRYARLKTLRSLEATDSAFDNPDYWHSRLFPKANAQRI
T5 sequence (P21860 496-643): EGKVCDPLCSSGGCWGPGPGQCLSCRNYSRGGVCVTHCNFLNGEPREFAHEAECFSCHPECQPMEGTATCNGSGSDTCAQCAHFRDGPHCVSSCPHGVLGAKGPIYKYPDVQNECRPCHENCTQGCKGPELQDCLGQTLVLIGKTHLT
T6 sequence (P21860 330-495): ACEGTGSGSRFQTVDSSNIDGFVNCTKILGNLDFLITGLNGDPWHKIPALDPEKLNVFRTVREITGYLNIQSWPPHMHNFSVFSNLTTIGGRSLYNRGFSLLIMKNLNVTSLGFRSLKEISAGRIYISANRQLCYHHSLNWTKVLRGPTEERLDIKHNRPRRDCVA
T4 sequence (P21860 20-183): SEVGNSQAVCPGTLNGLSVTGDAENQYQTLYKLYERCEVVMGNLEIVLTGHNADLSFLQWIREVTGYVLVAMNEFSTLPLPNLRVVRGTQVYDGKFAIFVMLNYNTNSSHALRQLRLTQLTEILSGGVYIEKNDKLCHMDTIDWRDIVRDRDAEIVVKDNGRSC

Phospho-HER3 ELISA IC50, heregulin induced, BT-474 cells [1]: 0.12 µg/mL
Phospho-HER3 ELISA IC50, heregulin induced, BxPC3 cells [1]: 0.0541 µg/mL
Phospho-HER3 ELISA IC50, heregulin induced, CHL-1 cells [1]: 0.138 µg/mL
Phospho-HER3 ELISA IC50, heregulin induced, MCF7 cells [1]: 0.0593 µg/mL
Phospho-HER3 ELISA IC50, heregulin induced, N87 cells [1]: 0.0533 µg/mL
Phospho-HER3 ELISA IC50, heregulin induced, SK-BR-3 cells [1]: 0.0191 µg/mL
Phospho-AKT ELISA IC50, heregulin induced, BxPC3 cells [2]: 0.0605 µg/mL
Phospho-HER3 ELISA IC50, betacellulin induced, SK-BR-3 cells [3]: 0.0368 µg/mL
Phospho-HER3 ELISA IC50, epidermal growth factor induced, SK-BR-3 cells [3]: 0.0233 µg/mL
Phospho-HER3 ELISA IC50, heregulin induced, SK-BR-3 cells [3]: 0.0191 µg/mL
Phospho-HER3 … IC50, heregulin induced, CHO EGFR + HER3 [4]: 0.103 µg/mL
Phospho-HER3 … IC50, heregulin induced, CHO HER4 + HER3 [4]: 0.141 µg/mL
Kd [5]: ~2000 pM
Kd [6]: 70 pM
binding result [7]: no binding (tested: 10 ug/ml)
binding result [8]: no binding (tested: 10 ug/ml)
binding result [9]: no binding (tested: 10 ug/ml)
Kd [10]: 2320 pM
kon [10]: 41200 M⁻¹ s⁻¹
Kd [11]: 70 pM
kon [11]: 1.76e+06 M⁻¹ s⁻¹
Kd [12]: 170 pM
kon [12]: 345000 M⁻¹ s⁻¹
Kd [13]: 60 pM
kon [13]: 1.4e+06 M⁻¹ s⁻¹
binding result [14]: binds
EC50 (read off the curve) [15]: ~0.2 µg/mL
B1: Murine 15D5 antibody (M5.15D5.2A1.1H10) (antibody, IgG1, V domains shown)
VH: EFQLQQSGPELVKPGASVKISCKASGYSFTDYNMNWVKQNNGKSLEWIGGINPNYGTTVYNQKFKGKATLTVDQSSSTAYMQLVSLTSEDSAVYYCARMTTIVPFDYWGQGTTLTVSS
VL: DIQMTQTTFSLSASLGDRVTISCRASQDISNYLNWYQQKPDGTVKLLIYYTSTLHSGVPSRFSGSGSGTDYFLTIRNLEEEDIATYFCQQGYTLPWTFGGGTKLDIK
notes: Mouse monoclonal, IgG1; also called m15D5; M5.15D5.1C1
